Measured values published in the supplement of paper PMC7125110.
± gives the standard error. For part of these data: Fewer inactive variants are shown than the library holds.

B1: glmS ribozyme (parent)
chain: AUAAAAGCGCCAGAACUACAGAAAUGUAGUUGACGAGGAGGAGGUUUAUCGAAUUUUCGGCGGAUGCCUCCAAA

Tests used:
Settings in all cases: with glucosamine-6-phosphate
[1] = variants of: B1; assay: kcat; higher = faster cleavage; RNA array
Outline: (§1)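 Tiles of sequenced MiSeq chips were imaged over ~14 h at 37 °C. On them, barcoded ribozyme variants had been transcribed in situ by E. coli RNA polymerase and were tracked via a hybridised Cy3 probe while glucosamine-6-phosphate (40 μM to 10 mM) in HEPES/KCl/Mg(OAc)2 buffer flowed in. Per-tile medians, normalised to baseline and to non-cleaving reference variants, were fit to one- or two-exponential decays for kobs, and weighted Michaelis–Menten fits gave kcat and KM.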

[2] = variants of: B1; assay: self-cleavage kobs at 160 uM GlcN6P; higher = faster cleavage; RNA array
Outline: as §1

[3] = variants of: B1; assay: KM; higher = weaker cofactor use; RNA array
Outline: as §1

[4] = variants of: B1; assay: self-cleavage kobs at 40 uM GlcN6P; higher = faster cleavage; RNA array
Outline: as §1

[5] = variants of: B1; assay: self-cleavage kobs at 640 uM GlcN6P; higher = faster cleavage; RNA array
Outline: as §1

[6] = variants of: B1; assay: self-cleavage kobs at 2500 uM GlcN6P; higher = faster cleavage; RNA array
Outline: as §1

[7] = variants of: B1; assay: self-cleavage kobs at 10000 uM GlcN6P; higher = faster cleavage; RNA array
Outline: as §1

| Variant | kcat [1] | self-cleavage kobs at 160 uM GlcN6P [2] | KM [3] | self-cleavage kobs at 40 uM GlcN6P [4] | self-cleavage kobs at 640 uM GlcN6P [5] | self-cleavage kobs at 2500 uM GlcN6P [6] | self-cleavage kobs at 10000 uM GlcN6P [7] |
| --- | --- | --- | --- | --- | --- | --- | --- |
| U57G C58U C70U | 1.35e-05 ± 3.4e-06 s⁻¹ | < 1e-05 s⁻¹ |  |  |  |  |  |
| G13U A33U | 1.31e-05 ± 3.3e-07 s⁻¹ | < 1e-05 s⁻¹ | 1490 ± 190 µM | < 1e-05 s⁻¹ |  |  |  |
| G32A G66A | 0.00312 ± 0.0006 s⁻¹ |  | 6290 ± 1700 µM |  | 0.000269 ± 6.9e-05 s⁻¹ | 0.000911 ± 0.00018 s⁻¹ | 0.0019 ± 0.00044 s⁻¹ |
| A48U C67U | 0.00022 ± 1.3e-05 s⁻¹ |  | 1890 ± 230 µM |  | 5.32e-05 ± 7.6e-06 s⁻¹ | 0.000135 ± 1.7e-05 s⁻¹ | 0.00018 ± 2e-05 s⁻¹ |
| A15C G40C | 0.000353 ± 6.6e-05 s⁻¹ | 5.62e-05 ± 7.5e-06 s⁻¹ | 1230 ± 420 µM |  | 0.000109 ± 9.3e-06 s⁻¹ | 0.000234 ± 2.4e-05 s⁻¹ | 0.000343 ± 3.9e-05 s⁻¹ |
| G9U C61A | 0.00139 ± 0.00021 s⁻¹ | 0.00013 ± 2.7e-05 s⁻¹ | 1500 ± 360 µM | 4.72e-05 ± 9.6e-06 s⁻¹ | 0.000373 ± 5.1e-05 s⁻¹ | 0.000927 ± 0.00013 s⁻¹ | 0.00121 ± 0.00023 s⁻¹ |
| U31G U56G C71A | 0.000443 ± 5.1e-05 s⁻¹ |  | 3050 ± 740 µM |  |  | 0.000191 ± 4.5e-05 s⁻¹ | 0.00035 ± 9e-05 s⁻¹ |
| U30A U55A | 0.0085 ± 0.0022 s⁻¹ | 0.000501 ± 0.00012 s⁻¹ | 1850 ± 740 µM | 0.000212 ± 3.2e-05 s⁻¹ |  | 0.00803 ± 0.0017 s⁻¹ | 0.00686 ± 0.00088 s⁻¹ |
| A15U U45G | 0.000918 ± 0.00015 s⁻¹ | 5.29e-05 ± 1e-05 s⁻¹ | 2150 ± 560 µM |  | 0.000248 ± 3.2e-05 s⁻¹ | 0.000552 ± 8.4e-05 s⁻¹ | 0.000705 ± 9.6e-05 s⁻¹ |
| C67G C71G | 1.33e-05 ± 4.1e-06 s⁻¹ |  |  |  |  |  |  |
| A6U C58G | < 1e-05 s⁻¹ |  |  | < 1e-05 s⁻¹ |  |  | < 1e-05 s⁻¹ |
| C61A C67U | 4.47e-05 ± 1.3e-05 s⁻¹ | 2.79e-05 ± 1.1e-05 s⁻¹ |  |  | 6.41e-05 ± 1.4e-05 s⁻¹ | 4.8e-05 ± 9.3e-06 s⁻¹ |  |
| A12U G38A | < 1e-05 s⁻¹ |  |  |  |  |  |  |
| C16U U57C | 0.000329 ± 0.00013 s⁻¹ |  |  |  | 5.65e-05 ± 1.1e-05 s⁻¹ | 8.73e-05 ± 1.7e-05 s⁻¹ | 0.00024 ± 3.4e-05 s⁻¹ |
| U56C A64G | 0.000167 ± 1.1e-05 s⁻¹ |  | 2690 ± 560 µM |  |  | 8.52e-05 ± 2.8e-05 s⁻¹ | 0.000131 ± 2e-05 s⁻¹ |
| G63U | < 1e-05 s⁻¹ | < 1e-05 s⁻¹ |  | < 1e-05 s⁻¹ |  | < 1e-05 s⁻¹ | < 1e-05 s⁻¹ |
| G13C C67A | 5.87e-05 ± 1.1e-05 s⁻¹ |  | 5930 ± 2600 µM |  |  |  | 3.7e-05 ± 9e-06 s⁻¹ |

| Variant | kcat [1] | self-cleavage kobs at 160 uM GlcN6P [2] | KM [3] | self-cleavage kobs at 40 uM GlcN6P [4] | self-cleavage kobs at 640 uM GlcN6P [5] | self-cleavage kobs at 2500 uM GlcN6P [6] | self-cleavage kobs at 10000 uM GlcN6P [7] |
| --- | --- | --- | --- | --- | --- | --- | --- |
| G35C A52G | < 1e-05 s⁻¹ | < 1e-05 s⁻¹ |  |  | < 1e-05 s⁻¹ |  | < 1e-05 s⁻¹ |
| C10U U69G | 2.93e-05 ± 5.7e-06 s⁻¹ | 2.85e-05 ± 8.2e-06 s⁻¹ |  |  | 2.55e-05 ± 1.1e-05 s⁻¹ | 3.24e-05 ± 9.9e-06 s⁻¹ |  |
| A14U U45A | 0.0137 ± 0.0043 s⁻¹ | 0.00102 ± 0.00029 s⁻¹ | 1480 ± 610 µM | 0.000446 ± 7.7e-05 s⁻¹ | 0.00404 ± 0.00082 s⁻¹ | 0.00683 ± 0.0026 s⁻¹ | 0.0148 ± 0.004 s⁻¹ |
| U45G C67A | 0.00845 ± 0.0014 s⁻¹ | 0.000663 ± 0.00016 s⁻¹ | 2670 ± 590 µM | 0.000114 ± 1.8e-05 s⁻¹ | 0.00177 ± 0.00033 s⁻¹ | 0.00369 ± 0.001 s⁻¹ | 0.00674 ± 0.0011 s⁻¹ |
| U31C U45C | 0.0005 ± 0.0001 s⁻¹ |  | 4690 ± 1600 µM |  | 5.17e-05 ± 1.1e-05 s⁻¹ | 0.000213 ± 3.5e-05 s⁻¹ | 0.000327 ± 4.5e-05 s⁻¹ |
| A6C C70A | 1.39e-05 ± 2.5e-06 s⁻¹ |  |  |  |  |  |  |
| A6C G59A | < 1e-05 s⁻¹ |  |  | < 1e-05 s⁻¹ |  |  | < 1e-05 s⁻¹ |
| U45A U65G | 0.00585 ± 0.001 s⁻¹ |  | 4290 ± 1100 µM | 5.91e-05 ± 7.9e-06 s⁻¹ | 0.000543 ± 0.00016 s⁻¹ | 0.00235 ± 0.00063 s⁻¹ | 0.00411 ± 0.00045 s⁻¹ |
| G41U C71A | 0.000252 ± 2.1e-05 s⁻¹ | 5.27e-05 ± 9.4e-06 s⁻¹ | 604 ± 120 µM |  | 0.000128 ± 1.2e-05 s⁻¹ | 0.000235 ± 2.8e-05 s⁻¹ | 0.000219 ± 2.8e-05 s⁻¹ |
| A14G C50U | 0.000229 ± 4.9e-05 s⁻¹ |  | 7960 ± 3000 µM |  | 3.25e-05 ± 1.6e-05 s⁻¹ | 5.19e-05 ± 9.6e-06 s⁻¹ | 0.000128 ± 1.5e-05 s⁻¹ |
| A6G G13A | < 1e-05 s⁻¹ | < 1e-05 s⁻¹ |  | < 1e-05 s⁻¹ | < 1e-05 s⁻¹ |  |  |
| G32U C68U | 0.000114 ± 5.5e-06 s⁻¹ |  | 1540 ± 250 µM | < 1e-05 s⁻¹ | 2.88e-05 ± 8.9e-06 s⁻¹ | 7.28e-05 ± 6.1e-06 s⁻¹ | 9.76e-05 ± 6.8e-06 s⁻¹ |
| C11U C58U | 3.64e-05 ± 4.6e-06 s⁻¹ |  |  |  |  | 4.05e-05 ± 1.3e-05 s⁻¹ | 3.32e-05 ± 7.1e-06 s⁻¹ |
| A33C U55C | < 1e-05 s⁻¹ | < 1e-05 s⁻¹ |  | < 1e-05 s⁻¹ | < 1e-05 s⁻¹ |  |  |
| A14U C50U C58U G60U | < 1e-05 s⁻¹ |  |  | < 1e-05 s⁻¹ | < 1e-05 s⁻¹ |  |  |
| U30A U54C | 0.00409 ± 0.0013 s⁻¹ |  | 1040 ± 490 µM | 0.000151 ± 2.1e-05 s⁻¹ | 0.00174 ± 0.00027 s⁻¹ | 0.00215 ± 0.00045 s⁻¹ | 0.00543 ± 0.001 s⁻¹ |
